From patent US10758526B2, “Combination therapies using agents that target tumor-associated stroma or tumor cells and other pathways” (BIOMED VALLEY DISCOVERIES, INC., priority 2014, dated 2020)
Positions count from the first letter of the chain named. Square brackets hold non-standard residues; d marks the D form. Peptide text beside a SMILES is read from it. * marks the point of attachment. Dolaproine = CO[C@@H]([C@@H]1CCCN1)[C@@H](C)C(=O)O; Dil = CC[C@H](C)[C@H](NC)[C@@H](CC(=O)O)OC; X1 = C[C@@H](N*)[C@@H](O)c1ccccc1; NMeV = CN[C@H](C(=O)O)C(C)C

T1: mTEM8-Fc (Mus musculus, UniProt Q9CZ52)
T1 construct: Fc
T1 sequence (Q9CZ52 31-319 limits assumed): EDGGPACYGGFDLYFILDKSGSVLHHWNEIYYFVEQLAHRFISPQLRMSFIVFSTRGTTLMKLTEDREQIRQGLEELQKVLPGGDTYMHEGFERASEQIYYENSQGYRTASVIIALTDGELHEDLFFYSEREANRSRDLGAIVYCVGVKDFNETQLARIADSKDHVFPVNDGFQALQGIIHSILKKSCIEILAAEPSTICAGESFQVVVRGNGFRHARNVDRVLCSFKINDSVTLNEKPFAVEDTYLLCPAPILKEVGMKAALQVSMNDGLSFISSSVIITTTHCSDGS

T2: hTEM8-AP (Homo sapiens, UniProt Q9H6X2)
T2 sequence (Q9H6X2 33-321 limits assumed): T1 sequence (Q9CZ52 31-319 limits assumed) with R40K, S104R, A241S

B1: M863: TEM8 monoclonal antibody (hIgG1), VH SEQ ID NO:7 and VL SEQ ID NO:8 (antibody, V domains shown)
VH: EVQLVETGAEVKKPGASVKVSCKASGYTFTGYYMHWVRQAPGQGLEWMGWINPTSGSTNYAQKFQGRVTMTRDTSISTAYMELSGLRSDDTAVYYCVRDPGSPKWLAFDPWGQGTLVTVSS
VL: DIQLTQSPSSLSASVGDRVTITCRASRAISRYLNWYQQKPGKAPKLLIYAASSLQSGVSSRFSGSGSGTEFTLTISSLQPEDFATYFCQQTYSPPITFGQGTRLEIKR
modifications: TEM863 mAb VH; TEM863 mAb VL

Tests used:
[1] = test system: OVCAR3 ovarian cancer model; experiment: M825 and M825-MMAE in OVCAR3 ovarian cancer model; format: in vivo, mice; settings: 0.2 mg/kg, equivalent to maximum MMAE in the 10 mg/kg ADC group
Procedure: Treatment initiated when tumor volume reached approximately 120 mm^3. M825 was given i.v. at 10 mg/kg and M825-MMAE was given i.v. at 1, 3, or 10 mg/kg, 2 times per week for 3.5 weeks. […] The 10 mg/kg ADC group was redosed on Day 56, 2 times per week.

[2] = Pharmacokinetics of TEM8 antibodies in mouse, single dose; format: in vivo
Source text: (§1) Tables 8 and 9 show pharmacokinetic properties of TEM8 antibodies according to the present invention in mouse for single dose (Table 8) and multiple dose (Table 9) treatments.

mTEM8-Fc = target: T1, mTEM8-Fc; experiment: Biocore affinity measurement of anti-TEM8 Fabs, mTEM8-Fc; format: binding
hTEM8-AP = target: T2, hTEM8-AP; experiment: Biocore affinity measurement of anti-TEM8 Fabs, hTEM8-AP; format: binding
[3] = Pharmacokinetics of TEM8 antibodies in mouse, multiple dose; format: in vivo
Source text: as §1

3T3 fibroblasts = experiment: Contractility of 3T3 fibroblasts in the presence of TGFb-1; format: cell-based; settings: in vitro
Procedure: 3T3 cells were cultured and contractility in the presence of TGFb-1 was measured in control or M825 exposed cells. […] Contractile forces are thought to contribute to increased cancer cell invasion.

Row | Molecule | AUCI ([2]; 5 mg/kg) [µg·h/mL] | AUCT ([2]; 5 mg/kg) [µg·h/mL] | CLF ([2]; 5 mg/kg) [mL/h/kg] | CMAX ([2]; 5 mg/kg) [ng/mL] | HALF ([2]; 5 mg/kg) [h] | KEL ([2]; 5 mg/kg) [h⁻¹] | TMAX ([2]; 5 mg/kg) [h] | VZF ([2]; 5 mg/kg) [L/kg] | AUCT ([2]; 15 mg/kg) [µg·h/mL] | CMAX ([2]; 15 mg/kg) [ng/mL] | TMAX ([2]; 15 mg/kg) [h] | AUCI ([3]; 5 mg/kg) [µg·h/mL] | AUCT ([3]; 5 mg/kg) [µg·h/mL] | CLF ([3]; 5 mg/kg) [mL/h/kg] | CMAX ([3]; 5 mg/kg) [ng/mL] | HALF ([3]; 5 mg/kg) [h] | KEL ([3]; 5 mg/kg) [h⁻¹] | TMAX ([3]; 5 mg/kg) [h] | VZF ([3]; 5 mg/kg) [L/kg] | AUCI ([3]; 15 mg/kg) [µg·h/mL] | other results
1 | CC[C@H](C)[C@@H]([C@@H](CC(=O)N1CCC[C@H]1[C@H](OC)[C@@H](C)C(=O)N[C@H](C)[C@@H](O)c1ccccc1)OC)N(C)C(=O)[C@@H](NC(=O)[C@@H](NC)C(C)C)C(C)C [MMAE, monomethylauristatin (MMAE), reference compound] (H-[NMeV]V[Dil][Dolaproine]-X1) |  |  |  |  |  |  |  |  |  |  |  |  |  |  |  |  |  |  |  |  | effect on tumor growth [1]: No effect
2 | M825: TEM8 monoclonal antibody (hIgG1), VH SEQ ID NO:1 and VL SEQ ID NO:2 | 1310.519 | 1310.222 | 3.82 | 46800 | 6.03 | 0.1149 | 3 | 0.03319 | 8991.767 | 144000 | 3 | 1408.345 | 1408.201 | 3.55 | 54300 | 9.10 | 0.0762 | 3 | 0.04661 | 21649.446 | AUCI ([2]; 15 mg/kg): 9239.202 µg·h/mL; CLF ([2]; 15 mg/kg): 1.62 mL/h/kg; HALF ([2]; 15 mg/kg): 23.77 h; KEL ([2]; 15 mg/kg): 0.0292 h⁻¹; VZF ([2]; 15 mg/kg): 0.05566 L/kg; ka (mTEM8-Fc): 1.7e+06 M⁻¹ s⁻¹; kd (mTEM8-Fc): 8.942e-05 s⁻¹; ka (hTEM8-AP): 3.05e+06 M⁻¹ s⁻¹; kd (hTEM8-AP): 0.0001802 s⁻¹; AUCT ([3]; 15 mg/kg): 21648.879 µg·h/mL; CLF ([3]; 15 mg/kg): 0.69 mL/h/kg; CMAX ([3]; 15 mg/kg): 314000 ng/mL; HALF ([3]; 15 mg/kg): 17.05 h; KEL ([3]; 15 mg/kg): 0.0406 h⁻¹; TMAX ([3]; 15 mg/kg): 3 h; VZF ([3]; 15 mg/kg): 0.01705 L/kg; contractility of activated 3T3 fibroblasts (3T3 fibroblasts): block the contractility
3 | B1 | 1330.847 | 1330.742 | 3.76 | 51300 | 8.59 | 0.0807 | 3 | 0.04656 | 10721.535 | 355000 | 3 | 1425.735 | 1425.565 | 3.51 | 58600 | 14.29 | 0.0485 | 3 | 0.07228 | 7272.672 | AUCT ([3]; 15 mg/kg): 7271.7 µg·h/mL; CLF ([3]; 15 mg/kg): 2.06 mL/h/kg; CMAX ([3]; 15 mg/kg): 147000 ng/mL; HALF ([3]; 15 mg/kg): 12.64 h; KEL ([3]; 15 mg/kg): 0.0549 h⁻¹; TMAX ([3]; 15 mg/kg): 3 h; VZF ([3]; 15 mg/kg): 0.0376 L/kg
